Reference: the supplement of paper PMC12042874
± gives the uncertainty stated by the source.

assay: amyloid nucleation score (Sup35N fusion, yeast selection) (log enrichment); library NNK2; higher = more nucleation; inactive = no reads after selection
In short: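 Nucleation score: DiMSum log enrichment of output over input reads, centred on the mode score of non-aggregating sequences. Only sequences with at least 100 input reads were kept. Reads came from Illumina sequencing of plasmid inserts before and after 7 days of growth at 30°C without adenine and uracil, in psi-negative yeast expressing Sup35N fused to peptides of 20 random codons after 24 hours of induction with 100 μM copper sulfate.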

Substance | amyloid nucleation score
HEVYNKGPT | inactive
HFDFGFIGRDVIDVIDVRTN | 0.039 ± 0.46
HFDSYNRNSMSSRPSVGILS | -0.441 ± 1.1
HFGAFMHCVCTRLKMS | -0.08 ± 0.61
HFMIVSLDGNHVMTTAAGVA | 0.233 ± 0.43
HFWVLFMLEETQSKFYLQST | -0.923 ± 0.64
HGDMYRRQDVVSGSNE | 0.153 ± 0.49
HGGQEAVHLRRCGGYDMSKA | 0.451 ± 0.42
HGKCVFGLPVLLQWKLGDQT | 0.607 ± 0.57
HGRRQGFAVTVGN | 0.355 ± 0.45
HGTIFTIYVC | -0.875 ± 0.42
HGVLVIVRAYVHVGEWVAQL | 1.96 ± 0.4
HGYHSGTLIALYVDN | inactive
HHFNLPMKKGRFVSLGFSLV | -0.623 ± 1
HHFTFQAAYFRNIPLESADE | 0.906 ± 0.23
HHIRSFVETGGDTWWGRCSR | 1.05 ± 0.21
HHKLLGWFDVEKGMPVRLWA | 0.148 ± 0.43
HHLLVRMSMCC | 4.49 ± 0.058
HIDVLMGCWMRIVTWSR | 2.17 ± 0.29
HIEVSACTRFLILNIHLRII | -1.46 ± 0.53
HIIASCTV | 1.18 ± 0.38
HILMKN | -0.013 ± 0.42
HINFRSVITVV | -0.81 ± 0.44
HISCMKLLSRLGYTCESLMW | -1.19 ± 0.55
HIWTEVFIYVCSWRLYTTRV | -1.48 ± 0.64

Substance | amyloid nucleation score
HKETSFDGHFAICWCYTCRH | 5.216 ± 0.046
HKGVLEINSRVETLRSSAVN | -0.545 ± 0.63
HKLFHLDSVQVYKQYGKEAI | 1.16 ± 0.18
HKVQLVWPFVYLVEVQRRSG | 2.85 ± 0.089
HLDPRAPSVVWTMADGEEDA | 0.837 ± 0.22
HLFLRFADSSYWIS | 1.24 ± 0.35
HLGSDRGDAWVANVKPERWD | 1.03 ± 0.31
HLHPGVYLKPFDGCGIINGI | 0.213 ± 0.8
HLLHGPFMSLGG | -0.973 ± 1
HLLHVSGLDEIEMWTGDF | -0.332 ± 0.39
HLLRKDVPQAWT | 3.29 ± 0.11
HLPGYSPIDCRKGLVLGRCT | 0.027 ± 0.54
HLRYGGFAV | 0.085 ± 0.2
HLTNLDFT | -1.1 ± 0.44
HMAVNTTALAKNLITG | -0.401 ± 0.55
HMNFRWLYMSIYVISLLEAL | inactive
HMNYKYFWGGLFNRMLGQLN | inactive
HMSGLNGLGCLGTCLWLCSS | inactive
HNGIMFTCYLSP | 5.944 ± 0.053
HNLLSRSAQPRGPLRPVRRH | 2.35 ± 0.16
HNRYYGVIYVSLKICKLAFR | 6.476 ± 0.027
HNYAVS | -0.711 ± 0.54
HPGMDF | inactive
HPHIFDLVVIYCQNGHV | 6.92 ± 0.075
HPMQLLTSAQIKG | 0.863 ± 0.41

Substance | amyloid nucleation score
HPSLVAGDWRFTGPLFCSLG | 4.02 ± 0.071
HQDRERTRVPSIILFSLFTY | 1.71 ± 0.17
HRDKLKVSPQITRSSFRRLS | 0.423 ± 0.26
HRKAYEPWFGCNMTYAGLGN | -0.232 ± 0.65
HRRSFGSQMYL | inactive
HRSCVDTDVSDGWKGVESEA | 0.599 ± 0.64
HRSLIIF | 1.97 ± 0.19
HRVSMKEGVEC | 0.256 ± 0.31
HRWVVWEYTGLAFYLAALEY | -0.469 ± 0.36
HSAIDMWS | -0.903 ± 0.44
HSFGRKYFFTF | -0.307 ± 0.55
HSFHTVSTARRLKQDPYMR | -0.387 ± 0.64
HSFNPNTCYLKGIDDALLGF | -0.838 ± 0.62
HSHPCDREFLPRMHAWLDSS | -0.135 ± 0.33
HSKGHILLTSNSNVFRLGRS | 0.166 ± 0.62
HSLCLVVLGFML | 5.428 ± 0.04
HSLLSYMFSFQLTNMNCDLG | -0.117 ± 0.56
HSLVTDEASCLTDRGHVGQV | 1.22 ± 0.27
HSRKFADVKSWLTTDKKRIR | 0.37 ± 0.48
HSVLEYFVTLCSNFLLWWVL | -0.192 ± 0.65
HTDSLLWIPRVHFCVFF | inactive
HTSSLF | -0.156 ± 0.3
HTVTKVTLRLVCTMGCFKMM | 0.135 ± 0.65
HVCCLKLVRCAGGGFVVKHV | 0.779 ± 0.18
HVGFHQKVRSELCRA | 0.087 ± 0.51

Substance | amyloid nucleation score
HVISTSW | inactive
HVIVMYGSIY | 3.19 ± 0.12
HVKASGP | 0.339 ± 0.35
HVLTAGNHVGSVMNWHANEM | inactive
HVMCR | 0.225 ± 0.19
HVRVYHPGQMNCSRYNTMQ | 0.217 ± 0.65
HVVTCMRILFPSDKGSCFVK | -0.142 ± 0.37
HVVTRVSFESVFCLFTYF | 3.83 ± 0.085
HWERLIGNLM | -0.791 ± 0.36
HWSAS | 1.35 ± 0.47
HYAFVLGYKFYYGVANYCDG | 0.886 ± 0.66
HYAVTYLLGYSVGRVLYLWK | -0.509 ± 0.79
HYSFYLVDYSFNISVGYFCT | 0.571 ± 0.39
HYSMHVNGDTAAGTYAQAFC | -0.472 ± 0.76
HYSRI | 0.647 ± 0.58
HYYLSTVSVYIGMPIRWFSG | 0.371 ± 0.38
IAAVDENCRVVCQIIFLSKV | inactive
IAFYMLSWGMMLV | -0.074 ± 0.8
IAIFWSYWGDVIVYSGMVLE | -0.187 ± 0.55
IAIPSDF | -0.214 ± 0.49
IAKFTVMDFYGMVVAYSNCR | 1.12 ± 0.42
ICAGISKKSGGTWSRARVCS | inactive
ICFYLLHDRIHHSWD | 5.3 ± 0.096
ICIVGRWYRASVFRVLEDYR | inactive
ICLFDY | -2.02 ± 0.62

Substance | amyloid nucleation score
ICRDWVDDNVFKIMGRTQRS | 0.099 ± 0.45
ICSPFVFGFCGTNFRRVLHR | 6.978 ± 0.033
ICVMSQCTQMYRMKICGSLQ | 0.568 ± 0.29
ICWPMGICLNNSDSVLLGEC | inactive
ICYKVLAMDLMLCMSGGVLV | 2.1 ± 0.092
IDDARRYCRQNRFTVSMGNC | -0.112 ± 0.54
IDDVEGPVAPFGIATVQDQP | 1.51 ± 0.46
IDFSRQTYLNCKKSRSSLLS | -0.437 ± 0.61
IDIEMIYERKPVGRIFSDT | -1.25 ± 0.42
IDLFVCAESMDRRGVTIPRS | 0.041 ± 0.35
IDSDKEAFRTFLWTLDMYRL | -0.536 ± 1
IDVMVMVRQSAKEQSSVRGC | 1.34 ± 0.2
IDWCFGRRENVGGHVRWRNG | 1.48 ± 0.3
IELFVSWKIGWVELRDVLLV | -0.055 ± 0.55
IELLYIRYK | -2.09 ± 1.1
IEPKHWIYTSGGLTRGRLYG | 0.073 ± 1.1
IERRVTWFLTLARCKLPTGQ | 0.796 ± 0.33
IESRL | inactive
IESRVWVGWSDD | -0.044 ± 0.49
IETCKKAHRSKYTLFGLLLY | -0.383 ± 0.63
IFCRIDYIYVYLHHVYVTVQ | 5.228 ± 0.036
IFDRNSYFKEHFVMIGLEGR | 0.228 ± 1
IFEAVVRVG | inactive
IFHVIVWLFEDAFVQVQNYR | 4.29 ± 0.078
IFKSHIPW | -1.22 ± 0.48

Substance | amyloid nucleation score
IFLSSDLTDGVYSSLYDPID | 0.042 ± 1.1
IFNDVIFNLRFC | 7.443 ± 0.054
IFRAYIAGKTIYRCDQYVGM | -0.539 ± 0.55
IFSHFILCKQAAVCTVNEFR | 5.08 ± 0.072
IFSNLRSFE | 0.657 ± 0.22
IFVALEIGVVNVDQVAKDVC | 6.75 ± 0.069
IFWTELCNPKFSFC | 9.439 ± 0.023
IFYCFGKLDA | 5.18 ± 0.072
IFYYG | -0.945 ± 0.36
IGCGARLEGKMMACMSRDRQ | 0.461 ± 0.64
IGCLVYHIITRVFVFVSPLF | inactive
IGDSVGSDWTSTFMCDSVCR | -0.15 ± 0.42
IGLANSSVCFSAFVTWYSLH | inactive
IGNRQVDFISDGAG | 0.034 ± 1.1
IGSVDDLNLKRICNDLDTP | 0.182 ± 0.79
IGTEWVFVM | 0.17 ± 0.64
IGTLSRNERASRNTHWDILT | 0.757 ± 0.47
IGVQVFPRMHVG | 3.06 ± 0.15
IHASSVILITCFEFNFYYFA | 4.64 ± 0.057
IHDWKQSYVNVC | 0.084 ± 0.45
IHIWGSLSIDIEFVCGMKAR | 1.04 ± 0.56
IHKAGFKDKGC | inactive
IHLQIWAFFMLRIPPGRNKT | -0.636 ± 0.76
IHLRWPMKRLVYTYCFYFYS | -0.788 ± 0.76
IHLWICSISYNAVSIRFTSY | 1.42 ± 0.097

Substance | amyloid nucleation score
IHRPTRFYTFSSSTSEQA | 0.351 ± 0.64
IHYFRTWVYHYGLRGFGIIR | 0.918 ± 0.58
IIALKMVVLIKCIKVY | inactive
IICMEVIFSLANCADWRTAV | 3.53 ± 0.12
IICTSSPQLIVYTSVRS | 7.08 ± 0.042
IIGAWKM | 0.992 ± 0.33
IIHDEVSLPWI | inactive
IILRSCMYCGSLAIIKGWMS | 2.91 ± 0.12
IINYANLSTVVNFYIRIGYC | 6.812 ± 0.028
IIPFRRSTVRLVRCLWISGL | 1.13 ± 0.31
IIRPVFILNLPYLFRCVG | 0.465 ± 0.28
IKCRVITQSCIPSSINRLDG | -0.114 ± 1.1
IKGTQSVRDTVSLVVIKDVW | 0.627 ± 0.4
IKGVRQHLTTYKGTL | -0.408 ± 0.49
IKRSMCICY | 0.089 ± 1.1
IKSLSMRYFIRLFRY | inactive
IKSRICISSYNNDMCGRFVL | -1.86 ± 0.62
IKTIADIYCISQSRIGSKLT | inactive
IKVSFRRTGGLLHLCKWLTC | -0.5 ± 0.33
IKWSLHRYYFVMFICSFIAS | -0.83 ± 0.61
IKYNEVVVVRWEANGRFE | 4 ± 0.063
